Experimental data: the supplement of paper PMC10567573

B1: TFE3 (parent)
chain: FHLGLEDILMEEEEGVVGGLSGGA
B2: ADD1 (parent)
chain: FASDGDSGTCSPLRHSFQKQQREK

Variants of: B1
Assay: protein stability index of a GFP-peptide fusion (GPS, HEK-293T) (PSI 1-6); higher = more stable
Details: c terminus: a fixed tail appended
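Also: lentivirally expressed fusions sorted by FACS into six bins by GFP to DsRed ratio, PSI derived from sequencing read proportions per bin multiplied by bin number.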

Protein stability index of substitutions, site by site:
F1: P 4.88 | G 4.95 | T 4.02 | L 4.36 | E 4.53 | S 4.96 | C 4.89 | D 5.21 | R 4.44 | K 5.06 | V 4.56 | H 5.11 | M 4.85 | A 5.2 | I 4.57 | W 4.09 | N 5.56 | Q 5.15 | Y 4.24
H2: A 4.12 | P 4.26 | N 4.84 | K 4.38 | M 4.29 | Q 4.44 | C 3.96 | F 3.15 | T 4.23 | V 2.75 | R 4.16 | G 4.41 | L 3.46 | S 4.27 | I 2.52 | D 4.81 | E 3.95

Variants of: B2
Assay: as above
Details: c terminus: a fixed tail appended

Protein stability index: each site, then its substitutions
Q21: Y 3.17 | I 3.42 | K 3.75 | R 3.75 | H 3.4 | S 3.64 | F 3.89 | P 3.67 | G 3.94 | V 3.06 | W 3.49 | N 4.04 | D 2.81 | C 3.57 | E 3.84 | T 3.99 | A 3.85 | L 3.26 | M 3.48
K19: M 3.61 | L 2.76 | P 3.09 | A 2.85 | T 3.11 | W 1.8 | H 4.43 | G 3.54 | I 3.17 | C 1.66 | E 3.71 | D 3.61 | R 3.19 | Q 4.53 | N 3.08 | S 3.23 | Y 3.62 | F 3.01
E23: T 3.67 | P 3.29 | F 2.74 | S 3.66 | D 3.11 | Y 3.25 | V 3.58 | C 3.37 | H 3.66 | L 3.57 | N 3.6 | W 2.94 | A 3.7 | Q 4.04 | R 3.79 | K 4.34 | G 3.21 | I 2.76
K24: I 3.17 | L 3.15 | Y 2.83 | S 3.4 | V 3.13 | N 3.57 | M 2.46 | Q 3.82 | R 3.14 | G 3.41 | C 3.41 | A 2.92 | F 2.96 | T 3.88 | D 3.83 | E 4.01 | W 3.08 | H 3.25 | P 3.42
Q18: Y 3.31 | F 3.16 | K 3.31 | N 4 | E 3.88 | S 3.52 | G 3.33 | W 1.62 | T 3.4 | I 3.33 | M 3.13 | P 3.84 | A 2.75 | R 3.81 | C 2.62 | L 3.73 | D 3.83 | V 2.97 | H 3.13
Q20: N 3.65 | G 3.98 | S 4.55 | T 4.07 | V 3.71 | Y 2.65 | E 4.16 | L 2.69 | M 3.07 | A 4.18 | H 3.71 | W 3.22 | K 3.96 | D 4.23 | F 2.8 | R 4.05 | P 3.65 | I 3.2 | C 2.97
R22: G 4.24 | S 4.21 | V 3.35 | K 4.57 | F 3.63 | Y 4.09 | M 3.77 | Q 3.84 | L 3.27 | P 3.57 | A 3.68 | H 3.84 | C 3.57 | E 4.23 | D 4.51 | N 3.42 | T 3.48 | W 3.28 | I 3.68
